Test results reported in publication PMC6450558.

Substrate: CC(=O)N[C@H]1[C@H]([C@H](O)[C@H](O)CO)O[C@](OP(=O)(O)OC[C@H]2O[C@@H](n3ccc(N)nc3=O)[C@H](O)[C@@H]2O)(C(=O)O)C[C@@H]1O
Assay: sialyltransferase kinetics, donor varied
Type: biochemical, Homo sapiens
Conditions: acceptor LacNAc-butyl (11), fixed concentration

B1: human ST3Gal-IV (Homo sapiens) (protein)
chain: MVSKSRWKLLAMLALVLVVMVWYSISREDRYIELFYFPIPEKKEPCLQGEAESKASKLFGNYSRDQPIFLRLEDYFWVKTPSAYELPYGTKGSEDLLLRVLAITSSSIPKNIQSLRCRRCVVVGNGHRLRNSSLGDAINKYDVVIRLNNAPVAGYEGDVGSKTTMRLFYPESAHFDPKVENNPDTLLVLVAFKAMDFHWIETILSDKKRVRKGFWKQPPLIWDVNPKQIRILNPFFMEIAADKLLSLPMQQPRKIKQKPTTGLLAITLALHLCDLVHIAGFGYPDAYNKKQTIHYYEQITLKSMAGSGHNVSQEALAIKRMLEMGAIKNLTSF
Km: 300 ± 66 µM
kcat: 0.0233 ± 0.00167 s⁻¹
kcat/Km: 78.3 ± 25 M⁻¹ s⁻¹

B2: human ST6Gal-I (Homo sapiens) (protein)
chain: MIHTNLKKKFSCCVLVFLLFAVICVWKEKKKGSYYDSFKLQTKEFQVLKSLGKLAMGSDSQSVSSSSTQDPHRGRQTLGSLRGLAKAKPEASFQVWNKDSSSKNLIPRLQKIWKNYLSMNKYKVSYKGPGPGIKFSAEALRCHLRDHVNVSMVEVTDFPFNTSEWEGYLPKESIRTKAGPWGRCAVVSSAGSLKSSQLGREIDDHDAVLRFNGAPTANFQQDVGTKTTIRLMNSQLVTTEKRFLKDSLYNEGILIVWDPSVYHSDIPKWYQNPDYNFFNNYKTYRKLHPNQPFYILKPQMPWELWDILQEISPEEIQPNPPSSGMLGIIIMMTLCDQVDIYEFLPSKRKTDVCYYYQKFFDSACTMGAYHPLLYEKNLVKHLNQGTDEDIYLLGKATLPGFRTIHC
Km: 119 ± 16 µM
kcat: 0.183 ± 0.00667 s⁻¹
kcat/Km: 1530 ± 417 M⁻¹ s⁻¹
